Test results as given in PMC5002451.
Like-named read-outs stand apart in the source and are kept apart here.

T1: RIG-I (human, UniProt O95786 1-925)
T1 sequence: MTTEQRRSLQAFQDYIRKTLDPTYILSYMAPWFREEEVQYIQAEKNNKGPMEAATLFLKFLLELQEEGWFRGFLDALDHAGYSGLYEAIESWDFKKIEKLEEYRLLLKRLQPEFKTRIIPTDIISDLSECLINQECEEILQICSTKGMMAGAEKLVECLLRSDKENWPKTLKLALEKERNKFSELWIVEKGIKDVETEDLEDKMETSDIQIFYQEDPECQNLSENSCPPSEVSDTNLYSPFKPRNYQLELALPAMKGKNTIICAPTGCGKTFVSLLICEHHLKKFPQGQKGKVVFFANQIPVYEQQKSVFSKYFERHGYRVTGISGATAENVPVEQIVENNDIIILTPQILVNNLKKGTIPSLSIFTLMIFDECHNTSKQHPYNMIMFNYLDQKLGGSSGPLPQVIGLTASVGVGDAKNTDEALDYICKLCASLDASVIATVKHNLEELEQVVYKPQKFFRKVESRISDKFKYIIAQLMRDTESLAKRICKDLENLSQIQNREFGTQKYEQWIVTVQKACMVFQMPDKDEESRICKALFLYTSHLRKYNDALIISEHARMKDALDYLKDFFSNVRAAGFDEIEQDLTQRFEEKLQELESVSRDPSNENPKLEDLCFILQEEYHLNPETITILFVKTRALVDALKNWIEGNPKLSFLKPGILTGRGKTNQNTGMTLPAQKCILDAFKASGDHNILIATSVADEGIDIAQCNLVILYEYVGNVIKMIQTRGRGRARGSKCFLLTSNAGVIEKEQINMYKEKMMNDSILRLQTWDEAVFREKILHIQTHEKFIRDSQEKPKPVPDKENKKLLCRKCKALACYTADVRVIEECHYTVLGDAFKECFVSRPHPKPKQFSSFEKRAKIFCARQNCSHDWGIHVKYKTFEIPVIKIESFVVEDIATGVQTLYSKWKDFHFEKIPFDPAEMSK


Columns and labels:
RIG-I [1] = molecular target: T1, RIG-I; experiment: EMSA
RIG-I [2] = molecular target: T1, RIG-I; experiment: EMSA; remark: listed apart in the source

Binder | binding result (RIG-I [1]) | binding result (RIG-I [2])
47R/25RI (dsRNA, 5'-OH) RNA 1: GGAAAAUGUAAAUGACAUAGGCGCGCUGAAAGGGAGAAGUGAAAGUG RNA 2: CGCGCCUAUGUCAUUUACAUUUUCC | binds | –
3P-47R/25RI (dsRNA, 5'-triphosphate (on 47R, implied by name)) RNA 1: GGAAAAUGUAAAUGACAUAGGCGCGCUGAAAGGGAGAAGUGAAAGUG RNA 2: CGCGCCUAUGUCAUUUACAUUUUCC | – | binds
3P-47R/25DI (DNA:RNA, 5'-triphosphate (on 47R, implied by name)) RNA: GGAAAAUGUAAAUGACAUAGGCGCGCUGAAAGGGAGAAGUGAAAGUG DNA: CACTTTCACTTCTCCCTTTCAGCGC | – | binds
